Source: patent US20100047228A1

Assays:
Assay in all cases: cell-based or functional assay
delta-plasmin (human) = delta-plasmin (human) (UniProt P00747)
micro-plasmin = micro-plasmin (UniProt P00747)
mini-plasmin (human) = mini-plasmin (human) (UniProt P00747)
plasmin (human) = plasmin (human) (UniProt P00747)
Chain of plasmin (human) (P00747 20-580, chain 1 of 2): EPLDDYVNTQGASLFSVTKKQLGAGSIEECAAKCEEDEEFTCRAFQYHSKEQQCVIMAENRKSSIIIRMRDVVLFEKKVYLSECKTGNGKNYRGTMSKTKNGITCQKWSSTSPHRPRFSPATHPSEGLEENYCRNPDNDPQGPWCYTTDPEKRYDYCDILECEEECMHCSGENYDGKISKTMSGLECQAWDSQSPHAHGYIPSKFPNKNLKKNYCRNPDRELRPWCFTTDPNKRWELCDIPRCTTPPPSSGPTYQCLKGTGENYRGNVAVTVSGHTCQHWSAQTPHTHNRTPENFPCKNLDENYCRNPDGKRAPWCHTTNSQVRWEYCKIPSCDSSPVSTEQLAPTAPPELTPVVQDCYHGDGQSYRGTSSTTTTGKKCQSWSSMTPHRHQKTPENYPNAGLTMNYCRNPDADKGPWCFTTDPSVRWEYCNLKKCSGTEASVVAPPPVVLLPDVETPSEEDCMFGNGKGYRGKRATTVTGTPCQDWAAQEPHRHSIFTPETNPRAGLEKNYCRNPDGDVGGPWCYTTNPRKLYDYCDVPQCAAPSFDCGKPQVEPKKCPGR
Chain of plasmin (human) (P00747 581-810, chain 2 of 2): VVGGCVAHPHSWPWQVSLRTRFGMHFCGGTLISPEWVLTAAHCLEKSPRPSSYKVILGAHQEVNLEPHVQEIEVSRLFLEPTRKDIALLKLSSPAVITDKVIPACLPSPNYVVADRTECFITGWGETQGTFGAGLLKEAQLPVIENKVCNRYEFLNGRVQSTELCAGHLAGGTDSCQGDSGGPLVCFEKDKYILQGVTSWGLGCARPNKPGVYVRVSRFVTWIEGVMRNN

Chain of delta-plasmin (human) (P00747 other isoform, or with tags, fused parts or gaps mutant limits assumed): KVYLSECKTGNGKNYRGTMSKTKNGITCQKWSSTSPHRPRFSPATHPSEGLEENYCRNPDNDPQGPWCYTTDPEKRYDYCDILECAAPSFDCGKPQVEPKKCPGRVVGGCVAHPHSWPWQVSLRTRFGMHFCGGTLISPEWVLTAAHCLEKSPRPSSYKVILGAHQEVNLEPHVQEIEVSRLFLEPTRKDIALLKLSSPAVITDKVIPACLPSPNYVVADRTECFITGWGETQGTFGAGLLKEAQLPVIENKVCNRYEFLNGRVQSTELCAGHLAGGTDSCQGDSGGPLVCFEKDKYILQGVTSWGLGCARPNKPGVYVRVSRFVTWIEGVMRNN
Chain of micro-plasmin (P00747 562-810 limits assumed): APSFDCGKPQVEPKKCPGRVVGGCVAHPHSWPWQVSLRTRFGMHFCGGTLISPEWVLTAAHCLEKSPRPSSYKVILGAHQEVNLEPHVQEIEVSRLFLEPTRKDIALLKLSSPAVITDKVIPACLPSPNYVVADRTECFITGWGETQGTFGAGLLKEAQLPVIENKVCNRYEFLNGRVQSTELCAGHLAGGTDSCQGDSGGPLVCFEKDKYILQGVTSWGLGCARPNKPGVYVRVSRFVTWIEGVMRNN
Chain of mini-plasmin (human) (P00747 462-580, chain 1 of 2): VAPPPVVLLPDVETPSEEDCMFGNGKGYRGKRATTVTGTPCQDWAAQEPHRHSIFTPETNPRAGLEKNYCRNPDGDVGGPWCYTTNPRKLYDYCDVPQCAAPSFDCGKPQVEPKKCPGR
Chain of mini-plasmin (human) (P00747 581-810, chain 2 of 2): as the sequence (P00747 581-810, chain 2 of 2) above

inhibition rate (delta-plasmin (human)) [M⁻¹ s⁻¹]	inhibition rate (micro-plasmin) [M⁻¹ s⁻¹]	inhibition rate (mini-plasmin (human)) [M⁻¹ s⁻¹]	inhibition rate (plasmin (human)) [M⁻¹ s⁻¹]	inhibition rate, fold against micro-plasmin or mini-plasmin (delta-plasmin (human)) [fold]	rate of inhibition (delta-plasmin (human)) [M⁻¹ s⁻¹]	inhibition rate (second of two separate experiments) (micro-plasmin) [M⁻¹ s⁻¹]	Binder
760000	780000	750000	650000	–	–	–	α2-macroglobulin (protein, UniProt P01023 24-1474, looked up) SVSGKPQYMVLVPSLLHTETTEKGCVLLSYLNETVTVSASLESVRGNRSLFTDLEAENDVLHCVAFAVPKSSSNEEVMFLTVQVKGPTQEFKKRTTVMVKNEDSLVFVQTDKSIYKPGQTVKFRVVSMDENFHPLNELIPLVYIQDPKGNRIAQWQSFQLEGGLKQFSFPLSSEPFQGSYKVVVQKKSGGRTEHPFTVEEFVLPKFEVQVTVPKIITILEEEMNVSVCGLYTYGKPVPGHVTVSICRKYSDASDCHGEDSQAFCEKFSGQLNSHGCFYQQVKTKVFQLKRKEYEMKLHTEAQIQEEGTVVELTGRQSSEITRTITKLSFVKVDSHFRQGIPFFGQVRLVDGKGVPIPNKVIFIRGNEANYYSNATTDEHGLVQFSINTTNVMGTSLTVRVNYKDRSPCYGYQWVSEEHEEAHHTAYLVFSPSKSFVHLEPMSHELPCGHTQTVQAHYILNGGTLLGLKKLSFYYLIMAKGGIVRTGTHGLLVKQEDMKGHFSISIPVKSDIAPVARLLIYAVLPTGDVIGDSAKYDVENCLANKVDLSFSPSQSLPASHAHLRVTAAPQSVCALRAVDQSVLLMKPDAELSASSVYNLLPEKDLTGFPGPLNDQDNEDCINRHNVYINGITYTPVSSTNEKDMYSFLEDMGLKAFTNSKIRKPKMCPQLQQYEMHGPEGLRVGFYESDVMGRGHARLVHVEEPHTETVRKYFPETWIWDLVVVNSAGVAEVGVTVPDTITEWKAGAFCLSEDAGLGISSTASLRAFQPFFVELTMPYSVIRGEAFTLKATVLNYLPKCIRVSVQLEASPAFLAVPVEKEQAPHCICANGRQTVSWAVTPKSLGNVNFTVSAEALESQELCGTEVPSVPEHGRKDTVIKPLLVEPEGLEKETTFNSLLCPSGGEVSEELSLKLPPNVVEESARASVSVLGDILGSAMQNTQNLLQMPYGCGEQNMVLFAPNIYVLDYLNETQQLTPEIKSKAIGYLNTGYQRQLNYKHYDGSYSTFGERYGRNQGNTWLTAFVLKTFAQARAYIFIDEAHITQALIWLSQRQKDNGCFRSSGSLLNNAIKGGVEDEVTLSAYITIALLEIPLTVTHPVVRNALFCLESAWKTAQEGDHGSHVYTKALLAYAFALAGNQDKRKEVLKSLNEEAVKKDNSVHWERPQKPKAPVGHFYEPQAPSAEVEMTSYVLLAYLTAQPAPTSEDLTSATNIVKWITKQQNAQGGFSSTQDTVVALHALSKYGAATFTRTGKAAQVTIQSSGTFSSKFQVDNNNRLLLQQVSLPELPGEYSMKVTGEGCVYLQTSLKYNILPEKEEFPFALGVQTLPQTCDEPKAHTSFQISLSVSYTGSRSASNMAIVDVKMVSGFIPLKPTVKMLERSNHVSRTEVSSNHVLIYLDKVSNQTLSLFFTVLQDVPVRDLKPAIVKVYDYYETDEFAIAEYNAPCSKDLGNA
1e+07	180000	240000	–	40	1.1e+07	310000	α2-antiplasmin (protein, UniProt P08697 40-491, looked up) NQEQVSPLTLLKLGNQEPGGQTALKSPPGVCSRDPTPEQTHRLARAMMAFTADLFSLVAQTSTCPNLILSPLSVALALSHLALGAQNHTLQRLQQVLHAGSGPCLPHLLSRLCQDLGPGAFRLAARMYLQKGFPIKEDFLEQSEQLFGAKPVSLTGKQEDDLANINQWVKEATEGKIQEFLSGLPEDTVLLLLNAIHFQGFWRNKFDPSLTQRDSFHLDEQFTVPVEMMQARTYPLRWFLLEQPEIQVAHFPFKNNMSFVVLVPTHFEWNVSQVLANLSWDTLHPPLVWERPTKVRLPKLYLKHQMDLVATLSQLGLQELFQAPDLRGISEQSLVVSGVQHQSTLELSEVGVEAAAATSIAMSRMSLSSFSVNRPFLFFIFEDTTGLPLFVGSVRNPNPSAPRELKEQQDSPGNKDFLQSLKGFPRGDKLFGPDLKLVPPMEEDYPQFGSPK
